{"source": "patent US20140274782A1", "about": "“AFFINITY REAGENTS AND METHODS FOR DETECTION, PURIFICATION, AND PROTEOMIC ANALYSIS OF METHYLATED PROTEINS” (The Board of Trustees of the Leland Stanford Junior …, priority 2013, published 2014)", "molecules": {"B1": {"name": "ZC3H11A (protein, UniProt O75152 1-810, looked up)", "Zinc finger CCCH …": "MPNQGEDCYFFFYSTCTKGDSCPFRHCEAAIGNETVCTLWQEGRCFRQVCRFRHMEIDKKRSEIPCYWENQPTGCQKLNCAFHHNRGRYVDGLFLPPSKTVLPTVPESPEEEVKASQLSVQQNKLSVQSNPSPQLRSVMKVESSENVPSPTHPPVVINAADDDEDDDDQFSEEGDETKTPTLQPTPEVHNGLRVTSVRKPAVNIKQGECLNFGIKTLEEIKSKKMKEKSKKQGEGSSGVSSLLLHPEPVPGPEKENVRTVVRTVTLSTKQGEEPLVRLSLTERLGKRKFSAGGDSDPPLKRSLAQRLGKKVEAPETNIDKTPKKAQVSKSLKERLGMSADPDNEDATDKVNKVGEIHVKTLEEILLERASQKRGELQTKLKTEGPSKTDDSTSGARSSSTIRIKTFSEVLAEKKHRQQEAERQKSKKDTTCIKLKIDSEIKKTVVLPPIVASRGQSEEPAGKTKSMQEVHIKTLEEIKLEKALRVQQSSESSTSSPSQHEATPGARRLLRITKRTGMKEEKNLQEGNEVDSQSSIRTEAKEASGETTGVDITKIQVKRCETMREKHMQKQQEREKSVLTPLRGDVASCNTQVAEKPVLTAVPGITRHLTKRLPTKSSQKVEVETSGIGDSLLNVKCAAQTLEKRGKAKPKVNVKPSVVKVVSSPKLAPKRKAVEMHAAVIAAVKPLSSSSVLQEPPAKKAAVAVVPLVSEDKSVTVPEAENPRDSLVLPPTQSSSDSSPPEVSGPSSSQMSMKTRRLSSASTGKPPLSVEDDFEKLIWEISGGKLEAEIDLDPGKDEDDLLLELSEMIDS"}, "B2": {"name": "WD repeat-containing protein 70 (protein, UniProt Q9NW82 1-654, looked up)", "WD repeat-containing protein …": "MERSGPSEVTGSDASGPDPQLAVTMGFTGFGKKARTFDLEAMFEQTRRTAVERSRKTLEAREKEEEMNREKELRRQNEDIEPTSSRSNVVRDCSKSSSRDTSSSESEQSSDSSDDELIGPPLPPKMVGKPVNFMEEDILGPLPPPLNEEEEEAEEEEEEEEEEENPVHKIPDSHEITLKHGTKTVSALGLDPSGARLVTGGYDYDVKFWDFAGMDASFKAFRSLQPCECHQIKSLQYSNTGDMILVVSGSSQAKVIDRDGFEVMECIKGDQYIVDMANTKGHTAMLHTGSWHPKIKGEFMTCSNDATVRTWEVENPKKQKSVFKPRTMQGKKVIPTTCTYSRDGNLIAAACQNGSIQIWDRNLTVHPKFHYKQAHDSGTDTSCVTFSYDGNVLASRGGDDSLKLWDIRQFNKPLFSASGLPTMFPMTDCCFSPDDKLIVTGTSIQRGCGSGKLVFFERRTFQRVYEIDITDASVVRCLWHPKLNQIMVGTGNGLAKVYYDPNKSQRGAKLCVVKTQRKAKQAETLTQDYIITPHALPMFREPRQRSTRKQLEKDRLDPLKSHKPEPPVAGPGRGGRVGTHGGTLSSYIVKNIALDKTDDSNPREAILRHAKAAEDSPYWVSPAYSKTQPKTMFAQVESDDEEAKNEPEWKKRKI"}, "B3": {"name": "Heterogeneous nuclear ribonucleoprotein L (protein, UniProt P14866 1-589, looked up)", "Heterogeneous nuclear …": "MSRRLLPRAEKRRRRLEQRQQPDEQRRRSGAMVKMAAAGGGGGGGRYYGGGSEGGRAPKRLKTDNAGDQHGGGGGGGGGAGAAGGGGGGENYDDPHKTPASPVVHIRGLIDGVVEADLVEALQEFGPISYVVVMPKKRQALVEFEDVLGACNAVNYAADNQIYIAGHPAFVNYSTSQKISRPGDSDDSRSVNSVLLFTILNPIYSITTDVLYTICNPCGPVQRIVIFRKNGVQAMVEFDSVQSAQRAKASLNGADIYSGCCTLKIEYAKPTRLNVFKNDQDTWDYTNPNLSGQGDPGSNPNKRQRQPPLLGDHPAEYGGPHGGYHSHYHDEGYGPPPPHYEGRRMGPPVGGHRRGPSRYGPQYGHPPPPPPPPEYGPHADSPVLMVYGLDQSKMNCDRVFNVFCLYGNVEKVKFMKSKPGAAMVEMADGYAVDRAITHLNNNFMFGQKLNVCVSKQPAIMPGQSYGLEDGSCSYKDFSESRNNRFSTPEQAAKNRIQHPSNVLHFFNAPLEVTEENFFEICDELGVKRPSSVKVFSGKSERSSSGLLEWESKSDALETLGFLNHYQMKNPNGPYPYTLKLCFSTAQHAS"}, "B4": {"name": "PEF1 (protein, UniProt Q9UBV8 1-284, looked up)", "Peflin": "MASYPYRQGCPGAAGQAPGAPPGSYYPGPPNSGGQYGSGLPPGGGYGGPAPGGPYGPPAGGGPYGHPNPGMFPSGTPGGPYGGAAPGGPYGQPPPSSYGAQQPGLYGQGGAPPNVDPEAYSWFQSVDSDHSGYISMKELKQALVNCNWSSFNDETCLMMINMFDKTKSGRIDVYGFSALWKFIQQWKNLFQQYDRDRSGSISYTELQQALSQMGYNLSPQFTQLLVSRYCPRSANPAMQLDRFIQVCTQLQVLTEAFREKDTAVQGNIRLSFEDFVTMTASRML"}}, "key": {"3×MBT domain of L3MBTL1": {"tested_on": "3×MBT domain of L3MBTL1", "test": "Triple SILAC pull-down, 3xMBT/3xMBTD355N ratio (cytoplasmic, nuclear and chromatin fractions of 293T cells);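 for all read-outs here: proteins quantified with MaxQuant, requiring at least two unique peptides and quantification in both label directions, normalized to the mean of proteins from a digested loading control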", "type": "binding, human", "conditions": "SILAC ratio; for 3xMBT/D355N UNC Heavy / 3xMBT/D355N UNC Light: pull-down 3xMBT vs 3xMBTD355N; for 3xMBT/D355N UNC Heavy: experiment with UNC0638 in heavy SILAC media; for 3xMBT/D355N UNC Light: experiment with UNC0638 in light SILAC media; for Protein Ratios 3xMBT/D355N: pull-down by 3xMBT vs 3xMBTD355N, 293T cells"}, "G9a and GLP": {"target": "T1, G9a and GLP (Homo sapiens, UniProt Q96KQ7+Q9H9B1)", "T1 sequence (Q96KQ7 2-1210 limits assumed)": "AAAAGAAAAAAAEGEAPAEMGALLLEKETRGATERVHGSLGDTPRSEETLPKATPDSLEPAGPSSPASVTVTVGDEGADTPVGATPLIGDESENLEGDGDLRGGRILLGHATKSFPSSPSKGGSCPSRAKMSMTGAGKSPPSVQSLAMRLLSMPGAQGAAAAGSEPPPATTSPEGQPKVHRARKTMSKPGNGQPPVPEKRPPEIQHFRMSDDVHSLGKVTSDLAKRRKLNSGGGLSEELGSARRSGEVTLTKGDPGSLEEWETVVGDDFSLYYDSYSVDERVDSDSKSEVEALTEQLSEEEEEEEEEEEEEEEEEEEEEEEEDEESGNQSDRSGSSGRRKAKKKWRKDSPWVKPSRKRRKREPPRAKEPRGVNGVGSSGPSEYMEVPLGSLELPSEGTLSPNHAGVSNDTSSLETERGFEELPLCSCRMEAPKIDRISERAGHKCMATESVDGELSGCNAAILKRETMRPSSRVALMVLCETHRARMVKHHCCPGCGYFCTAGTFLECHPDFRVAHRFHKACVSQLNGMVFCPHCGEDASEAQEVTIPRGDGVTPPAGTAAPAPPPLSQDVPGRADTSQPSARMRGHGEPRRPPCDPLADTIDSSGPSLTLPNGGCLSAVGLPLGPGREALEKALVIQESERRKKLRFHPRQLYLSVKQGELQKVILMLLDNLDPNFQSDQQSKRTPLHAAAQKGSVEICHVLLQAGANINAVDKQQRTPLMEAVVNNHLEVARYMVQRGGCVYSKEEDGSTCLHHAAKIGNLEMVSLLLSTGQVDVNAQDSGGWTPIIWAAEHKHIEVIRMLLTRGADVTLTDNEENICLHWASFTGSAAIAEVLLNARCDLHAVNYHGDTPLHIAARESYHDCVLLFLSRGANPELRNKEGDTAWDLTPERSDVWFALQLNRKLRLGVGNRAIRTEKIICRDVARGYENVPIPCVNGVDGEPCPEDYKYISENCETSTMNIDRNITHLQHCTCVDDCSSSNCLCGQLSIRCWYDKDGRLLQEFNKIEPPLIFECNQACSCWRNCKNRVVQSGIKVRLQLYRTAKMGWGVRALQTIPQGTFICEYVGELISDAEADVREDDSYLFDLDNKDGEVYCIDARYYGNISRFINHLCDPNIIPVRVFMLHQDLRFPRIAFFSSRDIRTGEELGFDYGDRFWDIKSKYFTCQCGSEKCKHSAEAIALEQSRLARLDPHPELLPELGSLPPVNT", "T1 sequence (Q9H9B1 2-1298 limits assumed)": "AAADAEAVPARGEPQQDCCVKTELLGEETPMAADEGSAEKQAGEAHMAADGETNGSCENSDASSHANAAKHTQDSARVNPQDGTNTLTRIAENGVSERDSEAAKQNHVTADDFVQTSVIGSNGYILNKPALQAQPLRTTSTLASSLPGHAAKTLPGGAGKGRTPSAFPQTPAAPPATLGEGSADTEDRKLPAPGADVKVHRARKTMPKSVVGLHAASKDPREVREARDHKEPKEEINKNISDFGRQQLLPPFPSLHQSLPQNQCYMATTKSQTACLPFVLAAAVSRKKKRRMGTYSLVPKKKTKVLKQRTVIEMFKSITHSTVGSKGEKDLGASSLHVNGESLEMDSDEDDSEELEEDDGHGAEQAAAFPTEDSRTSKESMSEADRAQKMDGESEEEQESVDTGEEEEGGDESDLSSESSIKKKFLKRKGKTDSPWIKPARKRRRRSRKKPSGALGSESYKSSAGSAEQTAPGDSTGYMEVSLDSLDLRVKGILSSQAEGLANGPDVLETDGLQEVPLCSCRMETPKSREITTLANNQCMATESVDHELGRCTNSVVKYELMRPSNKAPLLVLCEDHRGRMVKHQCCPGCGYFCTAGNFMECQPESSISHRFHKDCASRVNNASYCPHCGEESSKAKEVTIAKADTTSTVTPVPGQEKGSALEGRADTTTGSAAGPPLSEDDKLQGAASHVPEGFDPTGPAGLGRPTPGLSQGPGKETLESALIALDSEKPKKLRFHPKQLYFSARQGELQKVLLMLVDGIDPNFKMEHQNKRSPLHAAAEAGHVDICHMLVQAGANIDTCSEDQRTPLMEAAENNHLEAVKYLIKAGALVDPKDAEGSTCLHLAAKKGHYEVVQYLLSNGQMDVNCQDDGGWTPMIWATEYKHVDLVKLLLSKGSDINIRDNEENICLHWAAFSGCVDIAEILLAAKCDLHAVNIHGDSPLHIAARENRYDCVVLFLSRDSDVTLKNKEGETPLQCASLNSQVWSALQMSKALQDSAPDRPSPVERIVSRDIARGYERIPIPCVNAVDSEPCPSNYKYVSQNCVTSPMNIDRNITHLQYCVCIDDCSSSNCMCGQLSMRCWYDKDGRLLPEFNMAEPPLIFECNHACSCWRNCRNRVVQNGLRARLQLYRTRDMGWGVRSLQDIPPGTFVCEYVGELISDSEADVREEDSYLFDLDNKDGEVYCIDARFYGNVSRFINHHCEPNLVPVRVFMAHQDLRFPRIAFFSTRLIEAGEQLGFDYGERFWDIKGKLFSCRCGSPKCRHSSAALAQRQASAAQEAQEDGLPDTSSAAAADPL", "test": "Triple SILAC pull-down after UNC0638 treatment of 293T cells, DMSO/UNC0638 ratio of protein captured by 3×MBT;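 for all read-outs here: mass spectrometry (Q-Exactive) SILAC quantitation, DMSO/UNC0638 ratio computed after subtracting 3×MBTD355N mutant pull-down background, only proteins with at least twofold 3×MBT over mutant signal considered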", "type": "cell-based", "set-up": "cells were treated for 24 hours with UNC0638 at 2.5 μM or DMSO vehicle control; endogenous in cells; host or cells: HEK 293T", "conditions": "for Relative to UNC0638 UNC Heavy / Relative to UNC0638 UNC Light: SILAC ratio DMSO/UNC0638 of protein pulled down with 3xMBT; for Relative to UNC0638 UNC Heavy: UNC0638 in heavy SILAC media; for Relative to UNC0638 UNC Light: UNC0638 in light SILAC media; for Relative to UNC0638 Average: average of UNC Light and UNC Heavy experiments; for Protein Ratios DMSO/UNC0638: SILAC ratio of protein captured by 3xMBT, 293T cells treated 24 hours with UNC0638 at 2.5 μM or DMSO"}}, "data": [{"molecule": "B1", "values": [{"measurement": "3xMBT/D355N UNC Heavy", "setting": "3×MBT domain of L3MBTL1", "result": 2.23, "unit": "log base 2"}, {"measurement": "3xMBT/D355N UNC Light", "setting": "3×MBT domain of L3MBTL1", "result": 2.81, "unit": "log base 2"}, {"measurement": "Relative to UNC0638 UNC Heavy", "setting": "G9a and GLP", "result": 0.32, "unit": "log base 2"}, {"measurement": "Relative to UNC0638 UNC Light", "setting": "G9a and GLP", "result": 0.12, "unit": "log base 2"}, {"measurement": "Relative to UNC0638 Average", "setting": "G9a and GLP", "result": 0.22, "unit": "log base 2"}]}, {"molecule": "B2", "values": [{"measurement": "Protein Ratios 3xMBT/D355N", "setting": "3×MBT domain of L3MBTL1", "result": 5.9}, {"measurement": "Protein Ratios DMSO/UNC0638", "setting": "G9a and GLP", "result": 1.3}]}, {"molecule": "B3", "values": [{"measurement": "Protein Ratios 3xMBT/D355N", "setting": "3×MBT domain of L3MBTL1", "result": 2.4}, {"measurement": "Protein Ratios DMSO/UNC0638", "setting": "G9a and GLP", "result": 1.3}]}, {"molecule": "B4", "values": [{"measurement": "3xMBT/D355N UNC Heavy", "setting": "3×MBT domain of L3MBTL1", "result": 1.48, "unit": "log base 2"}, {"measurement": "3xMBT/D355N UNC Light", "setting": "3×MBT domain of L3MBTL1", "result": 1.78, "unit": "log base 2"}, {"measurement": "Relative to UNC0638 UNC Heavy", "setting": "G9a and GLP", "result": 0.30, "unit": "log base 2"}, {"measurement": "Relative to UNC0638 UNC Light", "setting": "G9a and GLP", "result": 0.17, "unit": "log base 2"}, {"measurement": "Relative to UNC0638 Average", "setting": "G9a and GLP", "result": 0.24, "unit": "log base 2"}]}]}
